# From IntAct's records for PubMed 35512704
# B1: Mothers against decapentaplegic homolog 4 (Homo sapiens), Q13485 (parent)
# chain: MDNMSITNTPTSNDACLSIVHSLMCHRQGGESETFAKRAIESLVKKLKEKKDELDSLITAITTNGAHPSKCVTIQRTLDGRLQVAGRKGFPHVIYARLWRWPDLHKNELKHVKYCQYAFDLKCDSVCVNPYHYERVVSPGIDLSGLTLQSNAPSSMMVKDEYVHDFEGQPSLSTEGHSIQTIQHPPSNRASTETYSTPALLAPSESNATSTANFPNIPVASTSQPASILGGSHSEGLLQIASGPQPGQQQNGFTGQPATYHHNSTTTWTGSRTAPYTPNLPHHQNGHLQHHPPMPPHPGHYWPVHNELAFQPPISNHPAPEYWCSIAYFEMDVQVGETFKVPSSCPIVTVDGYVDPSGGDRFCLGQLSNVHRTEAIERARLHIGKGVQLECKGEGDVWVRCLSDHAVFVQSYYLDREAGRAPGDAVHKIYPSAYIKVFDLRQCHRQMQQQAATAQAAAAAQAAAVAGNIPGPGSVGGIAPAISLSAAAGIGVDDLRRLCILRMSFVKGWGPDYPRQSIKETPCWIEIHLHRALQLLDEVLHTMPIADPQPLD
# Variants of: B1
# Conditions: with smad3_human SMAD3, P84022
# Chain of smad3_human SMAD3, P84022 (P84022 whole entry, looked up): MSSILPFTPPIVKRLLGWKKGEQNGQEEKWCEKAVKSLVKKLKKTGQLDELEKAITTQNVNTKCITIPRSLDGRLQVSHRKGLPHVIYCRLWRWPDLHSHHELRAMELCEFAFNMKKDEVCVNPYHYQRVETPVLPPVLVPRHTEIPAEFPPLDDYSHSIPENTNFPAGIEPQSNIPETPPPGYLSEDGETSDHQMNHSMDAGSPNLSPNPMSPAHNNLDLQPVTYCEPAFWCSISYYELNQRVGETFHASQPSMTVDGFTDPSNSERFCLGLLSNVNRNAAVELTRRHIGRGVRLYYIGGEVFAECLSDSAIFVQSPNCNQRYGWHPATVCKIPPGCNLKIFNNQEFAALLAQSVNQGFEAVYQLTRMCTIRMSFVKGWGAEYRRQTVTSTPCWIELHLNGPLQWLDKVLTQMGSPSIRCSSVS
row,Variant,effect of a mutation on the interaction
1,G386D,disrupting interaction strength

# Variants of: B1
# Conditions: with smad1_human SMAD1, Q15797
# Chain of smad1_human SMAD1, Q15797 (Q15797 whole entry): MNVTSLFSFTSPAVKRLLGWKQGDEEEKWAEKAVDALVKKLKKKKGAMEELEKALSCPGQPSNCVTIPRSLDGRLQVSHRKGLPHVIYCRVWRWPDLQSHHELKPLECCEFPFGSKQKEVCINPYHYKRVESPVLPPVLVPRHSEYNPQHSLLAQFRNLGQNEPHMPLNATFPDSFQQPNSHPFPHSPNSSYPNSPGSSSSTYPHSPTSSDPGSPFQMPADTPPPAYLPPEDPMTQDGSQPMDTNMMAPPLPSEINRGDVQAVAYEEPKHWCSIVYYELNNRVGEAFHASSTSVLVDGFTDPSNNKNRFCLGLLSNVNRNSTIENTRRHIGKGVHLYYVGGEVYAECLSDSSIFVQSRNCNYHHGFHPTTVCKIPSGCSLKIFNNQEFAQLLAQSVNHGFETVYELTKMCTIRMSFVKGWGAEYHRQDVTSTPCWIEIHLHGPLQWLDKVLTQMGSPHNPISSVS
row,Variant,effect of a mutation on the interaction
1,G386D,disrupting interaction strength

# Variants of: B1
# Conditions: with axin2_human AXIN2, Q9Y2T1
# Chain of axin2_human AXIN2, Q9Y2T1 (Q9Y2T1 whole entry): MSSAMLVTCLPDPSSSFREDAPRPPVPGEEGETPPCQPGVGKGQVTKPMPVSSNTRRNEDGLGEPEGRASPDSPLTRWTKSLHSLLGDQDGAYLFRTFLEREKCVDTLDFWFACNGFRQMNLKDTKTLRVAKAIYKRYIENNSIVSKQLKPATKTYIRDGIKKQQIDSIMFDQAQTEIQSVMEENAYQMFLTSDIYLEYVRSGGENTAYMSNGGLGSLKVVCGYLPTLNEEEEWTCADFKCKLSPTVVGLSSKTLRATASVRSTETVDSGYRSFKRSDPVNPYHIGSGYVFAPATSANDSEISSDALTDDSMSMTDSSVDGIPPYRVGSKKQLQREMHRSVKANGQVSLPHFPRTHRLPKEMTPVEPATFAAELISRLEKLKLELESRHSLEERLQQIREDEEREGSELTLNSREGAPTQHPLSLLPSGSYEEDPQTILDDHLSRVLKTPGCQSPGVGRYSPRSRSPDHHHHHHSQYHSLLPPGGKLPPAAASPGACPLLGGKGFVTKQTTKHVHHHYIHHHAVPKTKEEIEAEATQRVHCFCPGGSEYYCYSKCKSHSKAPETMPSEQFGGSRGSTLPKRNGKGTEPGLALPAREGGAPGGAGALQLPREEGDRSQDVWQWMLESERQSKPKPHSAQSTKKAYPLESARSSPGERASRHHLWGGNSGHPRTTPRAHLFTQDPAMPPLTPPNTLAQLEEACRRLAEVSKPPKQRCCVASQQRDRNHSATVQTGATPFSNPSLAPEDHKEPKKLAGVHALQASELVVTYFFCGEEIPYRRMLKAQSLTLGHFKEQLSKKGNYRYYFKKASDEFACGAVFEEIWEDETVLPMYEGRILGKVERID
row,Variant,effect of a mutation on the interaction
1,G386D,causing an interaction

# Variants of: B1
# Conditions: with gsk3b_human GSK3B
row,Variant,effect of a mutation on the interaction
1,G386D,causing an interaction

# Variants of: B1
# Conditions: with agap2_human AGAP2, Q99490
row,Variant,effect of a mutation on the interaction
1,G386D,with no effect

# Variants of: B1
# Conditions: with ajuba_human AJUBA
row,Variant,effect of a mutation on the interaction
1,G386D,with no effect

# Variants of: B1
# Conditions: with akt1_human AKT1, P31749
row,Variant,effect of a mutation on the interaction
1,G386D,with no effect

# Variants of: B1
# Conditions: with akts1_human AKT1S1, Q96B36
row,Variant,effect of a mutation on the interaction
1,G386D,with no effect

# Variants of: B1
# Conditions: with alk_human ALK
row,Variant,effect of a mutation on the interaction
1,G386D,with no effect

# Variants of: B1
# Conditions: with aph1a_human APH1A
row,Variant,effect of a mutation on the interaction
1,G386D,with no effect

# Variants of: B1
# Conditions: with arnt_human ARNT
row,Variant,effect of a mutation on the interaction
1,G386D,with no effect

# Variants of: B1
# Conditions: with bakor_human ATG14, Q6ZNE5
row,Variant,effect of a mutation on the interaction
1,G386D,with no effect

# Variants of: B1
# Conditions: with atpb_human ATP5F1B
row,Variant,effect of a mutation on the interaction
1,G386D,with no effect

# Variants of: B1
# Conditions: with aurkb_human AURKB
row,Variant,effect of a mutation on the interaction
1,G386D,with no effect

# Variants of: B1
# Conditions: with axin2_human AXIN2, Q9Y2T1
# Remark: another data set of the same source
row,Variant,effect of a mutation on the interaction
1,G386D,with no effect

# Variants of: B1
# Conditions: with ufo_human AXL
row,Variant,effect of a mutation on the interaction
1,G386D,with no effect

# Variants of: B1
# Conditions: with za2g_human AZGP1, P25311
row,Variant,effect of a mutation on the interaction
1,G386D,with no effect

# Variants of: B1
# Conditions: with b2mg_human B2M
row,Variant,effect of a mutation on the interaction
1,G386D,with no effect

# Variants of: B1
# Conditions: with bap1_human BAP1, Q92560
row,Variant,effect of a mutation on the interaction
1,G386D,with no effect

# Variants of: B1
# Conditions: with becn1_human BECN1, Q14457
row,Variant,effect of a mutation on the interaction
1,G386D,with no effect

# Variants of: B1
# Conditions: with birc2_human BIRC2, Q13490
row,Variant,effect of a mutation on the interaction
1,G386D,with no effect

# Variants of: B1
# Conditions: with braf_human BRAF
row,Variant,effect of a mutation on the interaction
1,G386D,with no effect

# Variants of: B1
# Conditions: with baba2_human BABAM2, Q9NXR7
row,Variant,effect of a mutation on the interaction
1,G386D,with no effect

# Variants of: B1
# Conditions: with btg1_human BTG1, P62324
# Chain of btg1_human BTG1, P62324 (P62324 whole entry): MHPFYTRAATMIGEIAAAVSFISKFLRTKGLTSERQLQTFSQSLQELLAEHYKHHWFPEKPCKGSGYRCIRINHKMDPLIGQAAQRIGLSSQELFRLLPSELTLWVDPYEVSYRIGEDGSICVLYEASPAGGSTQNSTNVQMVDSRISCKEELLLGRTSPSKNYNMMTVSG
row,Variant,effect of a mutation on the interaction
1,G386D,with no effect

# Variants of: B1
# Conditions: with btk_human BTK
row,Variant,effect of a mutation on the interaction
1,G386D,with no effect

# Variants of: B1
# Conditions: with cbl_human CBL
row,Variant,effect of a mutation on the interaction
1,G386D,with no effect

# Variants of: B1
# Conditions: with cblb_human CBLB
row,Variant,effect of a mutation on the interaction
1,G386D,with no effect

# Variants of: B1
# Conditions: with ccnd1_human CCND1, P24385
row,Variant,effect of a mutation on the interaction
1,G386D,with no effect

# Variants of: B1
# Conditions: with ccnd2_human CCND2, P30279
row,Variant,effect of a mutation on the interaction
1,G386D,with no effect

# Variants of: B1
# Conditions: with ccnd3_human CCND3, P30281
row,Variant,effect of a mutation on the interaction
1,G386D,with no effect

# Variants of: B1
# Conditions: with cd44_human CD44, P16070
row,Variant,effect of a mutation on the interaction
1,G386D,with no effect

# Variants of: B1
# Conditions: with cd79b_human CD79B
row,Variant,effect of a mutation on the interaction
1,G386D,with no effect

# Variants of: B1
# Conditions: with cdc27_human CDC27, P30260
# Chain of cdc27_human CDC27, P30260 (P30260 whole entry): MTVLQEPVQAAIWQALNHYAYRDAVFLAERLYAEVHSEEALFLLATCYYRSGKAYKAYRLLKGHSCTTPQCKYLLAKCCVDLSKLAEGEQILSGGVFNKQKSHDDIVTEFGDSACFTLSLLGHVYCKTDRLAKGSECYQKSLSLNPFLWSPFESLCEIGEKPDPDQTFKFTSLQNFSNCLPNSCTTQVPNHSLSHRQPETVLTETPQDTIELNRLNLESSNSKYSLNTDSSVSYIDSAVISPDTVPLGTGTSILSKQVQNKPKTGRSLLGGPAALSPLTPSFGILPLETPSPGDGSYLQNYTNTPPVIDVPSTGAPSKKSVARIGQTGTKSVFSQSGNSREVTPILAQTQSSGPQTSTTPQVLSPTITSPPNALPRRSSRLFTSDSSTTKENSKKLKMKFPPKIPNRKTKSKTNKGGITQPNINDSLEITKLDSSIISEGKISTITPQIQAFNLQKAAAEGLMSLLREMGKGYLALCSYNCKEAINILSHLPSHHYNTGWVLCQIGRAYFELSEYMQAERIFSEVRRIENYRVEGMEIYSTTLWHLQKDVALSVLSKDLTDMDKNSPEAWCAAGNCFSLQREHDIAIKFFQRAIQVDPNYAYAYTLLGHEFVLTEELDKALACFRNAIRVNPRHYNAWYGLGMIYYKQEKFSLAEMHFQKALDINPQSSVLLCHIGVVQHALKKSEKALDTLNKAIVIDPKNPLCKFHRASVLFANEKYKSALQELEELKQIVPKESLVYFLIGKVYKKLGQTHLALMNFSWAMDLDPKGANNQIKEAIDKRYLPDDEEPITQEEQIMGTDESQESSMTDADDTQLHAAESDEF
row,Variant,effect of a mutation on the interaction
1,G386D,with no effect

# Variants of: B1
# Conditions: with cdk4_human CDK4, P11802
# Chain of cdk4_human CDK4, P11802 (P11802 whole entry): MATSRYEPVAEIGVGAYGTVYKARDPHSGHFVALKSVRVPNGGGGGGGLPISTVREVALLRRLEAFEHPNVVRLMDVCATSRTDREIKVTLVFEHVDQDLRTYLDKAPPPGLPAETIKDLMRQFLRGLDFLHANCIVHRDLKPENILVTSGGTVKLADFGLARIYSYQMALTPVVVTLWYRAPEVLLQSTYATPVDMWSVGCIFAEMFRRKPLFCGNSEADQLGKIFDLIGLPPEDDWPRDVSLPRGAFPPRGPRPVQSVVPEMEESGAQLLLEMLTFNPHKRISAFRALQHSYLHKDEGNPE
row,Variant,effect of a mutation on the interaction
1,G386D,with no effect

# Variants of: B1
# Conditions: with cdk6_human CDK6, Q00534
row,Variant,effect of a mutation on the interaction
1,G386D,with no effect

# Variants of: B1
# Conditions: with cdn2b_human CDKN2B
row,Variant,effect of a mutation on the interaction
1,G386D,with no effect

# Variants of: B1
# Conditions: with cdn2c_human CDKN2C
row,Variant,effect of a mutation on the interaction
1,G386D,with no effect

# Variants of: B1
# Conditions: with cebpa_human CEBPA
row,Variant,effect of a mutation on the interaction
1,G386D,with no effect

# Variants of: B1
# Conditions: with chd1l_human CHD1L
row,Variant,effect of a mutation on the interaction
1,G386D,with no effect

# Variants of: B1
# Conditions: with chd2_human CHD2, O14647
row,Variant,effect of a mutation on the interaction
1,G386D,with no effect

# Variants of: B1
# Conditions: with ch3l1_human CHI3L1, P36222
row,Variant,effect of a mutation on the interaction
1,G386D,with no effect

# Variants of: B1
# Conditions: with csf1r_human CSF1R
row,Variant,effect of a mutation on the interaction
1,G386D,with no effect

# Variants of: B1
# Conditions: with ctna1_human CTNNA1, P35221
# Chain of ctna1_human CTNNA1, P35221 (P35221 whole entry): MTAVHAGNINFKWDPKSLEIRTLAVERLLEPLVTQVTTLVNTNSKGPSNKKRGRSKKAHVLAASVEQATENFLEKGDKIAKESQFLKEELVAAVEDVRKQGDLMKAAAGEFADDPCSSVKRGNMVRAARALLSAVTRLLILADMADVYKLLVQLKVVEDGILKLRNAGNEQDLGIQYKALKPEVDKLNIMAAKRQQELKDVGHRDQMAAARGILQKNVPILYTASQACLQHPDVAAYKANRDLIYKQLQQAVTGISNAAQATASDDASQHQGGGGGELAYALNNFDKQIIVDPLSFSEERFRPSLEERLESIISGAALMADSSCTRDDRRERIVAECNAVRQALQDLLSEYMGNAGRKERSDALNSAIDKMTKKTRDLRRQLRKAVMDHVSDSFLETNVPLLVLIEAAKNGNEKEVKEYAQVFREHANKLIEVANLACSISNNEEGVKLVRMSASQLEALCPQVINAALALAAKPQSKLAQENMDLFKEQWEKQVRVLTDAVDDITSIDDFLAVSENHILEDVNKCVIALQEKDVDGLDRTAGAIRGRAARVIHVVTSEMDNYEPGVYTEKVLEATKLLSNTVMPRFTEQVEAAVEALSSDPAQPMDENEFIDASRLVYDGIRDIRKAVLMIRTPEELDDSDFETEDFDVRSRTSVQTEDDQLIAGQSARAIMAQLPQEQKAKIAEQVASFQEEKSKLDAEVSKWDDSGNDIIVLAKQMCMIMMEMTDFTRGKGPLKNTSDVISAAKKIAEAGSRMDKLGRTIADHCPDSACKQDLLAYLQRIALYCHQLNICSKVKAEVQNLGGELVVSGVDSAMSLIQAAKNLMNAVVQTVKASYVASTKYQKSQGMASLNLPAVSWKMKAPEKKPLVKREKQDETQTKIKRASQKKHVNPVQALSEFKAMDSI
row,Variant,effect of a mutation on the interaction
1,G386D,with no effect

# Variants of: B1
# Conditions: with ctnb1_human CTNNB1, P35222
row,Variant,effect of a mutation on the interaction
1,G386D,with no effect

# Variants of: B1
# Conditions: with cul3_human CUL3, Q13618
# Chain of cul3_human CUL3, Q13618 (Q13618 whole entry): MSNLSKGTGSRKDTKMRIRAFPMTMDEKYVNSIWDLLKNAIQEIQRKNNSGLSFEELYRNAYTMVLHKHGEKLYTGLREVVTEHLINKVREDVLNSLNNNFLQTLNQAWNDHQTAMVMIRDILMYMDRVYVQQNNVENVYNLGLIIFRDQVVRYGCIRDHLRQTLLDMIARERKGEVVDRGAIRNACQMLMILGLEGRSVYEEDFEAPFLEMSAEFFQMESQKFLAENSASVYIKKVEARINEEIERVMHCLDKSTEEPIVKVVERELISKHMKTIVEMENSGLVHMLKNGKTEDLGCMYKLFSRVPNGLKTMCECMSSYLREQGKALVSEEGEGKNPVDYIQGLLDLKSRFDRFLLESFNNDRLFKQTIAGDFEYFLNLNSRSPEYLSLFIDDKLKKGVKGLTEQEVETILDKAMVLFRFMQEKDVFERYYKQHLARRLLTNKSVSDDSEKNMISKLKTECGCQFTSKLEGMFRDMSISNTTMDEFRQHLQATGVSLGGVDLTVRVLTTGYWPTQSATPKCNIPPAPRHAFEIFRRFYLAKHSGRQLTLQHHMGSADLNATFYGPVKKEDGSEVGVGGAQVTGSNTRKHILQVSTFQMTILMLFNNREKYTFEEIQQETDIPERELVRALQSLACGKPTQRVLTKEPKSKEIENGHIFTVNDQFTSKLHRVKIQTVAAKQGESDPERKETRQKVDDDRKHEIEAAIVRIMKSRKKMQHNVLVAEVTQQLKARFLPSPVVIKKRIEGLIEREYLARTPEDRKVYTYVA
row,Variant,effect of a mutation on the interaction
1,G386D,with no effect

# Variants of: B1
# Conditions: with dicer_human DICER1, Q9UPY3
row,Variant,effect of a mutation on the interaction
1,G386D,with no effect

# Variants of: B1
# Conditions: with dll3_human DLL3, Q9NYJ7
row,Variant,effect of a mutation on the interaction
1,G386D,with no effect

# Variants of: B1
# Conditions: with duox2_human DUOX2, Q9NRD8
row,Variant,effect of a mutation on the interaction
1,G386D,with no effect

# Variants of: B1
# Conditions: with e2f1_human E2F1, Q01094
row,Variant,effect of a mutation on the interaction
1,G386D,with no effect

# Variants of: B1
# Conditions: with e2f2_human E2F2, Q14209
row,Variant,effect of a mutation on the interaction
1,G386D,with no effect

# Variants of: B1
# Conditions: with e2f4_human E2F4, Q16254
row,Variant,effect of a mutation on the interaction
1,G386D,with no effect

# Variants of: B1
# Conditions: with e2f5_human E2F5, Q15329
row,Variant,effect of a mutation on the interaction
1,G386D,with no effect

# Variants of: B1
# Conditions: with e2f8_human E2F8, A0AVK6
row,Variant,effect of a mutation on the interaction
1,G386D,with no effect

# Variants of: B1
# Conditions: with if4e_human EIF4E
row,Variant,effect of a mutation on the interaction
1,G386D,with no effect

# Variants of: B1
# Conditions: with epha2_human EPHA2, P29317
row,Variant,effect of a mutation on the interaction
1,G386D,with no effect

# Variants of: B1
# Conditions: with epha7_human EPHA7, Q15375
row,Variant,effect of a mutation on the interaction
1,G386D,with no effect

# Variants of: B1
# Conditions: with ephb1_human EPHB1, P54762
row,Variant,effect of a mutation on the interaction
1,G386D,with no effect

# Variants of: B1
# Conditions: with erbb3_human ERBB3, P21860
row,Variant,effect of a mutation on the interaction
1,G386D,with no effect

# Variants of: B1
# Conditions: with erbb4_human ERBB4, Q15303
row,Variant,effect of a mutation on the interaction
1,G386D,with no effect

# Variants of: B1
# Conditions: with esr1_human ESR1, P03372
row,Variant,effect of a mutation on the interaction
1,G386D,with no effect
